Experiments:
[1] = biological target: recombinant mouse CD226-his (50232-M08H; SinoBiological) (mouse) (UniProt Q8K4F0); assay: SPR (Biacore T200), single-cycle kinetics, mCD226-his captured by anti-His, 1:1 Langmuir fit
[2] = biological target: recombinant mouse CD96-his (788806; Biolegend) (mouse) (UniProt Q3U0X8); assay: SPR (Biacore T200), single-cycle kinetics, mCD96-his captured by anti-His, 1:1 Langmuir fit
[3] = biological target: recombinant mouse TIGIT-Fc-his (771808; Biolegend) (mouse) (UniProt P86176); assay: SPR (Biacore T200), single-cycle kinetics, mTIGIT-Fc-his captured by anti-His, 1:1 Langmuir fit
Chain of UniProt P86176 (P86176 29-148 limits assumed): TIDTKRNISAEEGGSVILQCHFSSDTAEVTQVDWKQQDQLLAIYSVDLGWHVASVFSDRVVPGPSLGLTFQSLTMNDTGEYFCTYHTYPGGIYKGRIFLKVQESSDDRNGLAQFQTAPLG

Chain of UniProt Q3U0X8 (Q3U0X8 22-536 limits assumed): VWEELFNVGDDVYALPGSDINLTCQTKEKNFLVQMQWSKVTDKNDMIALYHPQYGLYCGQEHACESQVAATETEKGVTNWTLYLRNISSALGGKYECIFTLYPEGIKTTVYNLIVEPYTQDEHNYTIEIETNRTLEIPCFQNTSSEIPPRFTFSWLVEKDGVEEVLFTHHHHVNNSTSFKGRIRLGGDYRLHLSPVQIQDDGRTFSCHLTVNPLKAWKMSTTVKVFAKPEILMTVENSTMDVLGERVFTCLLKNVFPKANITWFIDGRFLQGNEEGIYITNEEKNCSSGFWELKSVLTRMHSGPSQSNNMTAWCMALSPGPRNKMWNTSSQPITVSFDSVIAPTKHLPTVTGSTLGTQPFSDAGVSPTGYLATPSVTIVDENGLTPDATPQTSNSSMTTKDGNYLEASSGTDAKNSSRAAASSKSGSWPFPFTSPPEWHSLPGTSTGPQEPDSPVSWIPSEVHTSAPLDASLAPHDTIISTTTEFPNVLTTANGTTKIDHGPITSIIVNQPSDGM
Chain of UniProt Q8K4F0 (Q8K4F0 19-254 limits assumed, stated change not applied): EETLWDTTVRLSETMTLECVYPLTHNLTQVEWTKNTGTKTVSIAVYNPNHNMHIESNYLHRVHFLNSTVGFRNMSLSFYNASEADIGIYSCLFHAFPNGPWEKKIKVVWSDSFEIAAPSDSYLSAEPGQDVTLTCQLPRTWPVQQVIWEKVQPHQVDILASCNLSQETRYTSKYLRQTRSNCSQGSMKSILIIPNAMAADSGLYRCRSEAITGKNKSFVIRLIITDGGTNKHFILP

Kd [1]: 0.83 nM
Kd [2]: 4.07 nM
koff [2]: 0.00455 s⁻¹
kon [2]: 1.17e+06 M⁻¹ s⁻¹
Kd [3]: 2.26 nM
koff [3]: 0.0646 s⁻¹
kon [3]: 2.25e+07 M⁻¹ s⁻¹
Substance: PVR-Fc (786608; Biolegend), full-length mouse PVR ECD-Fc (Fc fusion)

Source: patent US20240309052A1
